Values of other authors, collected in publication PMC8711257.

Key:
MET (Homo sapiens) = MET (Homo sapiens) (UniProt P08581)
MET ECD (Homo sapiens) = MET ECD (Homo sapiens) (UniProt P08581)

Kd (MET (Homo sapiens)): 0.003 µM | Kd (MET ECD (Homo sapiens)): 0.15 µM
Substance: HGF NK1 NK1 (from UniProt P14210)
